Reference: patent US20250361529

Molecular target: T1, UnCas12f1 (Un1Cas12f1) (UniProt A0A482D308)
T1 sequence: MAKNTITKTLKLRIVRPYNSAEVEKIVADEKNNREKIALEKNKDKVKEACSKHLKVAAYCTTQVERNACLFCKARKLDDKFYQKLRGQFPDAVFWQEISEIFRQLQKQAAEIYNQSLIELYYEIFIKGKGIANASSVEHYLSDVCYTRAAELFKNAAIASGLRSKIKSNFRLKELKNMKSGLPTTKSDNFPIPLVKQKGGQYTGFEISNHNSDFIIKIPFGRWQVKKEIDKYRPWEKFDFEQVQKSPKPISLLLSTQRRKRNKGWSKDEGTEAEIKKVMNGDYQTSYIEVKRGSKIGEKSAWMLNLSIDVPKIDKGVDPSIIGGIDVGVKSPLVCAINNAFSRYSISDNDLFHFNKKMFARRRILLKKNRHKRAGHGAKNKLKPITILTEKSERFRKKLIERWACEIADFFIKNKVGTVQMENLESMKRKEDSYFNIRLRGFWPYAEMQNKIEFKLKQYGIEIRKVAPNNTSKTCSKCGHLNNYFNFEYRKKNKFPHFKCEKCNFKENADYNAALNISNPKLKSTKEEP
Assay: cell_activity

ACCGCUUCACCAAAAGCUGUCCCUUAGGGGAUUAGAACUUGAGUGAAGGUGGGCUGCUUGCAUCAGCCUAAUGUCGAGAAGUGCUUUCUUCGGAAAGUAACCCUCGAAACAAAGAAAGGAAUGCAACNNNNNNNNNNNNNNNNNNNNUUUUAUUUUUUCUCAUUCUCAUGCCUGGACA / TTTGCTCATTCTCATGCCTGGACA / TGTCCAGGCATGAGAATGAGCAAA [ge4.0-F142 sgRNA ; DMD F142 target]
activity (PAM TTTR (TTTG), HEK293, AC16 48.08): 54 % indel

ACCGCUUCACCAAAAGCUGUCCCUUAGGGGAUUAGAACUUGAGUGAAGGUGGGCUGCUUGCAUCAGCCUAAUGUCGAGAAGUGCUUUCUUCGGAAAGUAACCCUCGAAACAAAGAAAGGAAUGCAACNNNNNNNNNNNNNNNNNNNNUUUUAUUUUUUCUCUCCUAGACCAUUUCCCA / TTTGCTCTCCTAGACCATTTCCCA / TGGGAAATGGTCTAGGAGAGCAAA [ge4.0-R52 sgRNA ; DMD R52 target]
activity (PAM TTTR (TTTG), HEK293, AC16 36.47): 46.1 % indel

ACCGCUUCACUUAGAGUGAAGGUGGGCUGCUUGCAUCAGCCUAAUGUCGAGAAGUGCUUUCUUCGGAAAGUAACCCUCGAAACAAAGAAAGGAAUGCAACNNNNNNNNNNNNNNNNNNNNUUUUAUUUUUUACUGACUACUCCCCAAGUAU / TTTGACTGACTACTCCCCAAGTAT / ATACTTGGGGAGTAGTCAGTCAAA [ge4.1-F110 sgRNA ; DMD F110 target]
activity (ge4.1, PAM TTTG, HEK293, 5 days, no editing detected): 0 % indel

ACCGCUUCACUUAGAGUGAAGGUGGGCUGCUUGCAUCAGCCUAAUGUCGAGAAGUGCUUUCUUCGGAAAGUAACCCUCGAAACAAAGAAAGGAAUGCAACNNNNNNNNNNNNNNNNNNNNUUUUAUUUUUUCUCAUUCUCAUGCCUGGACA / TTTGCTCATTCTCATGCCTGGACA / TGTCCAGGCATGAGAATGAGCAAA [ge4.1-F142 sgRNA ; DMD F142 target]
activity (PAM TTTR (TTTG), HEK293, AC16 19.18): 50 % indel

ACCGCUUCACUUAGAGUGAAGGUGGGCUGCUUGCAUCAGCCUAAUGUCGAGAAGUGCUUUCUUCGGAAAGUAACCCUCGAAACAAAGAAAGGAAUGCAACNNNNNNNNNNNNNNNNNNNNUUUUAUUUUUUUAGCUAGAUAAACUUGGGCU / TTTATAGCTAGATAAACTTGGGCT / AGCCCAAGTTTATCTAGCTATAAA [ge4.1-R16 sgRNA ; DMD R16 target]
activity (PAM TTTR (TTTA), HEK293, AC16 29.76): 58.8 % indel
